Source: patent US20230167182A1 (BIOSION, published 2023)
Numbering of substitutions follows the chain as printed.

T1: human IL6R expressed on cell surface (human, UniProt P08887 20-468)
T1 construct: whole, on cells; also called cell surface human IL6R; U266 cells expressing human IL6R
T1 sequence (looked up): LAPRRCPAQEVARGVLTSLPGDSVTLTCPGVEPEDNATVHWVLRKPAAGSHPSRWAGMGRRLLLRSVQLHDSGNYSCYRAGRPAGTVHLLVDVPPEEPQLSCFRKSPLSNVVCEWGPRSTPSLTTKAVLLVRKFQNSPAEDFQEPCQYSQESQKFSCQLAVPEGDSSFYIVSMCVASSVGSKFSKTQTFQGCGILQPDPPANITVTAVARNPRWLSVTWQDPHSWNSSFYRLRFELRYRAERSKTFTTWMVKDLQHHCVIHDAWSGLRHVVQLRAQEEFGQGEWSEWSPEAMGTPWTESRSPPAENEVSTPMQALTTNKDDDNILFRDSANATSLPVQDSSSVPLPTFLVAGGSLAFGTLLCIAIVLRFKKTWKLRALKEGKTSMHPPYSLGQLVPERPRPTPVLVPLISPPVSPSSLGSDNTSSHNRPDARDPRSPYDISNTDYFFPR

B1: mouse anti-IL6R monoclonal antibody 1F7 (antibody, V domains shown)
VH: QVQLQQPGAELVKPGASVKLSCKASDYTFTSYWMHWVKQRPGQGLEWIGEINPSNGRTNYNEKFKNKATLTVDKSSSTAYVQLYSLTSEDSAVYYCARLSIHYVFDYWGQGTTLTVSS
VL: ELVLTQSPTTMAASPGEKITFTCSASSSISSNYLHWYQQKPGFSPKLLISGTSNLASGVPPRFSGSGSGTSYSLTIVTMEAEDVATYYCQQGSGIPFTFGSGTKLEIK
notes: Mouse hybridoma mAb
B2: Tocilizumab (antibody, human IgG1, kappa, V domains shown)
VH: QVQLQESGPGLVRPSQTLSLTCTVSGYSITSDHAWSWVRQPPGRGLEWIGYISYSGITTYNPSLKSRVTMLRDTSKNQFSLRLSSVTAADTAVYYCARSLARTTAMDYWGQGSLVTVSS
VL: DIQMTQSPSSLSASVGDRVTITCRASQDISSYLNWYQQKPGKAPKLLIYYTSRLHSGVPSRFSGSGSGTDFTFTISSLQPEDIATYYCQQGNTLPYTFGQGTKVEIKR
notes: In house made; also called benchmark; Actemra
B3: mouse anti-IL6R monoclonal antibody 1H7 (antibody, V domains shown)
VH: QVQLQQPGTELVKPGASVKLSCKASGYTFTNYWMHWVKQRPGQGLDWIGEINPTNGRTNYNENFKSKATLTVDKSSSTAYMQLSSLTSEDSAVYYCARLNTHYVFDSWGQGTTLTLSS
VL: B1 VL with L2I, M11L, A25V, G51R, N54T, P61A, V77G, I107L
notes: Mouse hybridoma mAb
B4: mouse anti-IL6R monoclonal antibody 1H9 (antibody, V domains shown)
VH: QVQLQQPGAELVKPGASVKLSCKASGYTFTSYWMHWVKLRPGQGLEWIGEINPTNGRTNYYEKFKNRATLTADKSSSTAYMQLSSLTFEDSAVYFCAKFHYSRWYFDVWGTGTTVTVSS
VL: DIVMTQSQKFMSTSVGDRVSITCKASQNVGTAVVWYQQKPGQSPKLLINPASNRYTGVPDRFTGSGSGTDFTLTISNMQSEDLADYFCQQYSSYPLTFGAGTKLELK
notes: Mouse hybridoma mAb
B5: mouse anti-IL6R monoclonal antibody 1D4 (antibody, V domains shown)
VH: B3 VH with T9A, N31S, Q39V, D46E, N63D, D73N, K74S, S107Y, L116V
VL: B1 VL with L2I, T10I, M11L, A25V, S50Y, G51R, P61A, V77G
notes: Mouse hybridoma mAb
B6: mouse anti-IL6R monoclonal antibody 1G1 (antibody, V domains shown)
VH: B3 VH with T9A, N31S, Q39V, D46E, N63D, D73E, K74S, L83F, S107Y, L116V
VL: B1 VL with L2I, T10I, M11L, A25V, S50Y, G51R, P61A, V77G
notes: Mouse hybridoma mAb
B7: mouse anti-IL6R monoclonal antibody 3C2 (antibody, V domains shown)
VH: B3 VH with N31T, M34I, D46E, T54S, N63H, Y80S, E89A, L116V
VL: B1 VL with L2I, F21I, S50Y, G51R, P61T, R62H, V77G
notes: Mouse hybridoma mAb
B8: Chimeric 1H7 (antibody, human IgG1, kappa, V domains shown)
VH: B3 VH
VL: EIVLTQSPTTLAASPGEKITFTCSVSSSISSNYLHWYQQKPGFSPKLLISRTSTLASGVPARFSGSGSGTSYSLTIGTMEAEDVATYYCQQGSGIPFTFGSGTKLELKR
notes: Mouse variable regions on human IgG1 / human kappa constant regions; also called chimeric antibody 1H7
B9: mouse anti-IL6R monoclonal antibody 1B5 (antibody, V domains shown)
VH: B3 VH with T9A, N31S, D46E, T54S, S107Y, L116V
VL: B1 VL with L2I, T10I, M11L, A25V, S50Y, G51R, P61A, V77G
notes: Mouse hybridoma mAb

Each binder was assayed against T1, human IL6R expressed on cell surface (assay: cell-based binding FACS on U266 cells).
Procedure: The binding activities of the mouse anti-IL6R antibodies to IL6R expressed on cell surface were tested by flow cytometry (FACS). Briefly, human myeloma cells U266 (ATCC® TIB-196™) were harvested from cell culture flasks, washed twice and resuspended in phosphate buffered saline (PBS) containing 2% v/v Fetal Bovine Serum (FACS buffer). 2×10⁵ U266 cells per well were incubated in 96 well-plates with 100 μl of the anti-IL6R antibodies or controls at various concentrations (starting at 40 nM with a 3-fold serial dilution in FACS buffer) for 40 minutes on ice. Cells were washed twice with FACS buffer, and added with 100 μL/well R-Phycoerythrin AffiniPure F(ab′)₂ Fragment Goat Anti-Mouse IgG (H+L) (1:1000 dilution in FACS buffer, Jackson ImmunoResearch Laboratories, Inc., Cat #115-116-146). Following an incubation of 40 minutes at 4° C. in dark, cells were washed three times and resuspended in FACS buffer. Fluorescence was measured using a Becton Dickinson FACS Canto II-HTS equipment. Data was analyzed using Graphpad Prism software and EC₅₀ values were reported.
Work on B1 yielded an EC50 of 304 pM. Binder B2 has an EC50 of 1640 pM. Work on B3 yielded an EC50 of 246 pM. For B4, the EC50 was 391 pM. In the case of B5, the EC50 is reported as 274 pM.

Each binder was assayed against T2, human IL6R-Fc protein (human, biotin-labeled in the ELISAs (sites not given)) (assay: benchmark blocking ELISA: antibody pre-incubated with biotin-labeled human IL6R-Fc, added to plate-coated Tocilizumab (competitor: Tocilizumab)).
T2 construct: In house made; also called biotin-labeled human IL6R-Fc protein
Procedure: ELISA plates were washed once with wash buffer (PBS+0.05% v/v Tween-20, PBST) and then blocked with 200 μl/well blocking buffer (5% w/v non-fatty milk in PBST) overnight at 4° C.
The next day, the anti-IL6R antibodies of the disclosure or controls were diluted with biotin labeled human IL6R-Fc protein (SEQ ID NO: 43, 13.6 ng/ml in 2.5% w/v non-fatty milk in PBST), starting at 100 nM with a 5-fold serial dilution, and incubated at room temperature for 40 minutes. […] After incubation at 37° C. for 40 minutes, plates were washed 4 times using wash buffer. Then streptavidin conjugated HRP was added, and the plates were incubated for 40 minutes at 37° C. The plates were finally washed using wash buffer, and added with TMB. The reaction was stopped using 1M […], and the absorbance was read on a microplate reader using dual wavelength mode with 450 nm for TMB and 630 nm as the reference wavelength. The OD (450-630) values were plotted against antibody concentration. Data was analyzed using Graphpad Prism software and IC₅₀ values were reported.
Work on B2 yielded an IC50 of 2230 pM. For B6, the IC50 was 481 pM. With B7 the IC50 was 708 pM.

These binders were tested against T2, human IL6R-Fc protein (assay: capture ELISA: antibody captured on anti-IgG F(ab')2 coated plate, then biotin-labeled human IL6R-Fc, streptavidin-HRP).
Procedure: For the capture ELISA, 96-well micro plates were coated with 2 μg/ml AffiniPure Goat Anti-Mouse IgG, F(ab′)₂ fragment specific (Jackson ImmunoResearch Laboratories, Inc., Cat #115-005-072) in PBS, 100 μl/well, and incubated for 2 hours at 37° C. Plates were washed once with wash buffer (PBS+0.05% v/v Tween-20, PBST) and then blocked with 200 μl/well blocking buffer (5% w/v non-fatty milk in PBST) overnight at 4° C. […] Plates containing captured anti-IL6R antibodies were incubated with biotin-labeled human IL6R-Fc protein (prepared in house, SEQ ID NO: 43, 39.5 ng/ml in 2.5% w/v non-fatty milk in PBST, 100 μl/well) for 40 minutes at 37° C., washed 4 times, and incubated with streptavidin conjugated HRP (1:10000 dilution in PBST, Jackson ImmunoResearch Laboratories, Inc., Cat #016-030-084, 100 μl/well) for 40 minutes at 37° C. After a final wash, plates were incubated with 100 μl/well ELISA substrate TMB (InnoReagents, Cat #TMB-S-002). The reaction was stopped 3-10 minutes later at room temperature with 50 μl/well 1M H₂SO₄, and the absorbance of each well was read on a microplate reader using dual wavelength mode at 450 nm for TMB and 630 nm as the reference wavelength. Then the OD (450-630) values were plotted against antibody concentration. Data was analyzed using Graphpad Prism software and EC₅₀ values were reported.
For the capture ELISA, AffiniPure Goat Anti-Human IgG, F(ab′)₂ fragment specific (Jackson Immuno Research, Cat #109-005-097) was used instead of AffiniPure Goat Anti-Mouse IgG, F(ab′)₂ fragment specific, 100 μl/well.
Target sequence in this assay (chain, as listed by the source limits assumed): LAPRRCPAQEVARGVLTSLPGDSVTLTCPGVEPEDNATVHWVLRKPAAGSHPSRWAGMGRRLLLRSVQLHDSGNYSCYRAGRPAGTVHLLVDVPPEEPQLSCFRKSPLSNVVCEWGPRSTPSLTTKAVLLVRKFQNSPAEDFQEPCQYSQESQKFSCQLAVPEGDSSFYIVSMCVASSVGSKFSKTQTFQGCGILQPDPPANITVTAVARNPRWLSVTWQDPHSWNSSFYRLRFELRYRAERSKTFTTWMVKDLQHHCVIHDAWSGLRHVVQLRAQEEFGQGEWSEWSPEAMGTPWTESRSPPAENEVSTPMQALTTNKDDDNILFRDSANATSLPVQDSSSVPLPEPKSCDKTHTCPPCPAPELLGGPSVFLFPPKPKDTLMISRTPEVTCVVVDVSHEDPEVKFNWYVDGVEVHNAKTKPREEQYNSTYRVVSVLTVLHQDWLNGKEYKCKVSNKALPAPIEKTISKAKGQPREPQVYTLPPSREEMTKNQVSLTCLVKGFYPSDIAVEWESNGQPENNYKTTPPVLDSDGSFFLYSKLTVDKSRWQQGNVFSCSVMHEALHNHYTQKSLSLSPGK
In the case of B2, the EC50 is reported as 191 pM. B3 gave an EC50 of 55.3 pM. For B8, the EC50 was 78 pM. B9 was tested, and the EC50 was 62.7 pM.

The binders below were run against T2, human IL6R-Fc protein (assay: ligand blocking ELISA: antibody pre-incubated with biotin-labeled human IL6R-Fc, added to plate-coated human IL6 (blocked ligand: human IL6)).
Procedure: The next day, anti-IL6R antibodies or controls were diluted with biotin labeled human IL6R-Fc protein (prepared in house, SEQ ID NO: 43, 39.5 ng/ml in 2.5% w/v non-fatty milk in PBST), starting at 100 nM with a 4-fold serial dilution, and incubated at room temperature for 40 minutes. […] Plates were washed for 4 times using wash buffer, and added and incubated with 100 μl/well of streptavidin conjugated HRP (1:10000 dilution in PBST buffer, Jackson ImmunoResearch Laboratories, Inc., Cat #016-030-084) for 40 minutes at 37° C. Plates were washed again using wash buffer. Finally, TMB was added and the reaction was stopped using 1M H₂SO₄. The absorbance was read on a microplate reader using dual wavelength mode with 450 nm for TMB and 630 nm as the reference wavelength, and then the OD (450-630) values were plotted against antibody concentration. Data was analyzed using Graphpad Prism software and IC₅₀ values were reported.
Work on B1 yielded an IC50 of 617 pM. Binder B2 has an IC50 of 2300 pM. Work on B5 yielded an IC50 of 957 pM.

Target: T2, human IL6R-Fc protein
Assay: benchmark blocking ELISA: antibody pre-incubated with biotin-labeled human IL6R-Fc, added to plate-coated Tocilizumab (competitor: Tocilizumab)
Remark: another data set of the same source
Target sequence in this assay (chain, as listed by the source limits assumed): as above
B2 was tested, and the IC50 was 812 pM. In the case of B3, the IC50 is reported as 186 pM. B8 gave an IC50 of 194 pM. Work on B9 yielded an IC50 of 230 pM.
